From patent US20120100141A1 come the findings set out here.

The test concerns the target Mouse GLP-1 receptor (mouse) (UniProt O35659). Nature of the test: cell-based or functional assay.

Mouse GLP-1 receptor (mouse), sequence (O35659 22-463): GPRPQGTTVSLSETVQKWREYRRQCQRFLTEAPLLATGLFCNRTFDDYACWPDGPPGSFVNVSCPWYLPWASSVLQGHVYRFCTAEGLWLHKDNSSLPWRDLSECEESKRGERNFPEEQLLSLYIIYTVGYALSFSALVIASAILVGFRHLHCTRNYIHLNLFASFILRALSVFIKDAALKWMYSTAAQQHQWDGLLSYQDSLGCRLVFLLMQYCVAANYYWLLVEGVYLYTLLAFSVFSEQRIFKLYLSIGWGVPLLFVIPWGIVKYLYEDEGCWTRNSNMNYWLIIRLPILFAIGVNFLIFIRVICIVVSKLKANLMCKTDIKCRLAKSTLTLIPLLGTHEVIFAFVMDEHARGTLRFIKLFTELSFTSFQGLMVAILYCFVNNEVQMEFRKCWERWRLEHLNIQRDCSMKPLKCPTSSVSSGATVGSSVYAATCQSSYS

“GLP-1 (7-36) (from UniProt P01275 98-127) (peptide)” came in with a pEC50, melanophore functional GLP-1R bioassay of 11.5.
